Values belong to the binder of their own block, whether it stands above or below them.
Legend:
human serum albumin [1] = target: T1, human serum albumin (human, UniProt P02768 25-609); assay: SPR, BIAcore T100; construct captured; HSA 50-6.25 nM as analyte; 1:1 model
T1 construct: Analyte in SPR, titrated 50-6.25 nM; also called HSA
Protocol: (§1) Single linker Fab-dsFv samples were captured to the sensor chip surface using either a human F(ab′)₂-specific goat Fab (Jackson ImmunoResearch, 109-006-097) or an in-house generated anti human CH1 monoclonal antibody. Covalent immobilisation of the capture antibody was achieved by standard amine coupling chemistry.
(§2) For kinetic assays, either a titration of human serum albumin 50-6.25 nM, or a single concentration of OX40 of 25 nM was performed. A blank flow-cell was used for reference subtraction and buffer-blank injections were included to subtract instrument noise and drift.
(§3) Kinetic parameters were determined by simultaneous global-fitting of the resulting sensorgrams to a standard 1:1 binding model using BIAcore T100 Evaluation software.

human serum albumin [2] = target: T1, human serum albumin; assay: SPR, BIAcore T100; construct captured; HSA 50-6.25 nM as analyte; 1:1 model; repeat at end of run
Protocol: as §1, §2, §3

human serum albumin [3] = target: T1, human serum albumin; assay: SPR, BIAcore T100; construct captured by anti-human F(ab')2 Fab or anti-CH1 mAb; HSA 50-6.25 nM as analyte; 1:1 model
Protocol: as §1, §2, §3

human serum albumin [4] = target: T1, human serum albumin; assay: SPR, BIAcore T100; construct captured; HSA 50-6.25 nM as analyte; 1:1 model; plasmid ratio 1:1:1
Protocol: as §1, §2, §3

human serum albumin [5] = target: T1, human serum albumin; assay: SPR, BIAcore T100; construct captured; HSA 50-6.25 nM as analyte; 1:1 model; plasmid ratio 1:1:2
Protocol: as §1, §2, §3

human serum albumin [6] = target: T1, human serum albumin; assay: SPR, BIAcore T100; construct captured; HSA 50-6.25 nM as analyte; 1:1 model; plasmid ratio 2:1:2
Protocol: as §1, §2, §3

human serum albumin [7] = target: T1, human serum albumin; assay: SPR, BIAcore T100; construct captured; HSA 50-6.25 nM as analyte; 1:1 model; plasmid ratio printed 1:1:1 (second such row)
Protocol: as §1, §2, §3

B2: A26Fab-645dsFv (bispecific antibody)
heavy: EVQLVESGGGLVQPGGSLRLSCAASGFTFTNYGIHWIRQAPGKGLEWVASISPSGGLTYYRDSVKGRFTISRDDAKNSPYLQMNSLRAEDTAVYYCATGGEGIFDYWGQGTLVTVSSASTKGPSVFPLAPSSKSTSGGTAALGCLVKDYFPEPVTVSWNSGALTSGVHTFPAVLQSSGLYSLSSVVTVPSSSLGTQTYICNVNHKPSNTKVDKKVEPKSCSGGGGSGGGGTGGGGSEVQLLESGGGLVQPGGSLRLSCAVSGIDLSNYAINWVRQAPGKCLEWIGIIWASGTTFYATWAKGRFTISRDNSKNTVYLQMNSLRAEDTAVYYCARTVPGYSTAPYFDLWGQGTLVTVSS
light: DIQMTQSPSSLSASVGDRVTITCRATQSIYNALAWYQQKPGKAPKLLIYNANTLHTGVPSRFSASGSGTDSTLTISSLQPEDFATYYCQQYYDYPLTFGGGTKVEIKRTVAAPSVFIFPPSDEQLKSGTASVVCLLNNFYPREAKVQWKVDNALQSGNSQESVTEQDSKDSTYSLSSTLTLSKADYEKHKVYACEVTHQGLSSPVTKSFNRGECSGGGGSGGGGSGGGGSDIQMTQSPSSVSASVGDRVTITCQSSPSVWSNFLSWYQQKPGKAPKLLIYEASKLTSGVPSRFSGSGSGTDFTLTISSLQPEDFATYYCGGGYSSISDTTFGCGTKVEIKRT
notes: Expressed in HEK293; tested as supernatant; also called Fab-dsFv; A26Fab-645dsFv (start)
Kd (human serum albumin [2]): 3.11 nM
koff (human serum albumin [2]): 0.000212 s⁻¹
kon (human serum albumin [2]): 68200 M⁻¹ s⁻¹
Kd (human serum albumin [3]): 2.01 nM
koff (human serum albumin [3]): 0.000151 s⁻¹
kon (human serum albumin [3]): 75100 M⁻¹ s⁻¹

B3: Single linker A26Fab-645dsFv (HC-vH linked) (bispecific antibody)
heavy: B2 heavy
light: DIQMTQSPSSLSASVGDRVTITCRATQSIYNALAWYQQKPGKAPKLLIYNANTLHTGVPSRFSASGSGTDSTLTISSLQPEDFATYYCQQYYDYPLTFGGGTKVEIKRTVAAPSVFIFPPSDEQLKSGTASVVCLLNNFYPREAKVQWKVDNALQSGNSQESVTEQDSKDSTYSLSSTLTLSKADYEKHKVYACEVTHQGLSSPVTKSFNRGEC
VL: DIQMTQSPSSVSASVGDRVTITCQSSPSVWSNFLSWYQQKPGKAPKLLIYEASKLTSGVPSRFSGSGSGTDFTLTISSLQPEDFATYYCGGGYSSISDTTFGCGTKVEIKRT
notes: Three polypeptides; the free 645dsvL is held to the linked 645dsvH by the disulphide G44C (vH) / G100C (vL); all are the same molecule; also called single linker Fab-dsFv (HC-vH)
Kd (human serum albumin [4]): 1 nM
koff (human serum albumin [4]): 0.000209 s⁻¹
kon (human serum albumin [4]): 209000 M⁻¹ s⁻¹
Kd (human serum albumin [5]): 1.11 nM
koff (human serum albumin [5]): 0.000234 s⁻¹
kon (human serum albumin [5]): 211000 M⁻¹ s⁻¹
Kd (human serum albumin [6]): 1.05 nM
koff (human serum albumin [6]): 0.000207 s⁻¹
kon (human serum albumin [6]): 197000 M⁻¹ s⁻¹

The remaining lines, values ahead:

Kd (human serum albumin [1]): 1.29 nM
koff (human serum albumin [1]): 0.000222 s⁻¹
kon (human serum albumin [1]): 172000 M⁻¹ s⁻¹
B1: A26Fab-645dsscFv (LC-scFv) (bispecific antibody)
heavy: EVQLVESGGGLVQPGGSLRLSCAASGFTFTNYGIHWIRQAPGKGLEWVASISPSGGLTYYRDSVKGRFTISRDDAKNSPYLQMNSLRAEDTAVYYCATGGEGIFDYWGQGTLVTVSSASTKGPSVFPLAPSSKSTSGGTAALGCLVKDYFPEPVTVSWNSGALTSGVHTFPAVLQSSGLYSLSSVVTVPSSSLGTQTYICNVNHKPSNTKVDKKVEPKSC
light: DIQMTQSPSSLSASVGDRVTITCRATQSIYNALAWYQQKPGKAPKLLIYNANTLHTGVPSRFSASGSGTDSTLTISSLQPEDFATYYCQQYYDYPLTFGGGTKVEIKRTVAAPSVFIFPPSDEQLKSGTASVVCLLNNFYPREAKVQWKVDNALQSGNSQESVTEQDSKDSTYSLSSTLTLSKADYEKHKVYACEVTHQGLSSPVTKSFNRGECSGGGGSGGGGSEVQLLESGGGLVQPGGSLRLSCAVSGIDLSNYAINWVRQAPGKCLEWIGIIWASGTTFYATWAKGRFTISRDNSKNTVYLQMNSLRAEDTAVYYCARTVPGYSTAPYFDLWGQGTLVTVSSGGGGSGGGGSGGGGSGGGGSDIQMTQSPSSVSASVGDRVTITCQSSPSVWSNFLSWYQQKPGKAPKLLIYEASKLTSGVPSRFSGSGSGTDFTLTISSLQPEDFATYYCGGGYSSISDTTFGCGTKVEIKRT
notes: To be checked by chain lengths; also called Fab-dsscFv (LC-scFv)

Kd (human serum albumin [4]): 3.17 nM
koff (human serum albumin [4]): 0.000235 s⁻¹
kon (human serum albumin [4]): 74000 M⁻¹ s⁻¹
Kd (human serum albumin [5]): 2.31 nM
koff (human serum albumin [5]): 0.000262 s⁻¹
kon (human serum albumin [5]): 113000 M⁻¹ s⁻¹
Kd (human serum albumin [6]): 1.49 nM
koff (human serum albumin [6]): 0.000188 s⁻¹
kon (human serum albumin [6]): 126000 M⁻¹ s⁻¹
Kd (human serum albumin [7]): 2.46 nM
koff (human serum albumin [7]): 0.000223 s⁻¹
kon (human serum albumin [7]): 91000 M⁻¹ s⁻¹
B4: Single linker A26Fab-645dsFv (LC-vL linked) (bispecific antibody)
heavy: B1 heavy
light: B2 light
VH: EVQLLESGGGLVQPGGSLRLSCAVSGIDLSNYAINWVRQAPGKCLEWIGIIWASGTTFYATWAKGRFTISRDNSKNTVYLQMNSLRAEDTAVYYCARTVPGYSTAPYFDLWGQGTLVTVSS
notes: Three polypeptides; the free 645dsvH is held to the linked 645dsvL by the disulphide G44C (vH) / G100C (vL); all are the same molecule; also called single linker Fab-dsFv (LC-vL)

Kd (human serum albumin [1]): 1.31 nM
koff (human serum albumin [1]): 0.00024 s⁻¹
kon (human serum albumin [1]): 183000 M⁻¹ s⁻¹
B5: A26Fab-645dsscFv (HC-scFv) (bispecific antibody)
heavy: EVQLVESGGGLVQPGGSLRLSCAASGFTFTNYGIHWIRQAPGKGLEWVASISPSGGLTYYRDSVKGRFTISRDDAKNSPYLQMNSLRAEDTAVYYCATGGEGIFDYWGQGTLVTVSSASTKGPSVFPLAPSSKSTSGGTAALGCLVKDYFPEPVTVSWNSGALTSGVHTFPAVLQSSGLYSLSSVVTVPSSSLGTQTYICNVNHKPSNTKVDKKVEPKSCSGGGGTGGGGSEVQLLESGGGLVQPGGSLRLSCAVSGIDLSNYAINWVRQAPGKCLEWIGIIWASGTTFYATWAKGRFTISRDNSKNTVYLQMNSLRAEDTAVYYCARTVPGYSTAPYFDLWGQGTLVTVSSGGGGSGGGGSGGGGSGGGGSDIQMTQSPSSVSASVGDRVTITCQSSPSVWSNFLSWYQQKPGKAPKLLIYEASKLTSGVPSRFSGSGSGTDFTLTISSLQPEDFATYYCGGGYSSISDTTFGCGTKVEIKRT
light: B3 light
notes: To be checked by chain lengths; also called Fab-dsscFv (HC-scFv)

From patent US20200055959A1 (UCB, published 2020)
